T1: FZD3 cysteine-rich domain (CRD), MYC-tagged and GPI-anchored on CHO cells (human, UniProt Q9NPG1 24-150, GPI anchor)
T1 construct: domain: cysteine-rich domain (CRD); also called FZD3 CRD; CHO-myc-FZDGPI; not shown: MYC tag and GPI anchor signal
T1 sequence (looked up): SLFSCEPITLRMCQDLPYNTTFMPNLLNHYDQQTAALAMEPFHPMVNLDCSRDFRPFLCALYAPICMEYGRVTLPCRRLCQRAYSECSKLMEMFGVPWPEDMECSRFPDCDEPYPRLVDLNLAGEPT

T2: FZD4 cysteine-rich domain (CRD), MYC-tagged and GPI-anchored on CHO cells (human, UniProt Q9ULV1 42-167, GPI anchor)
T2 construct: also called FZD4 CRD; CHO-myc-FZDGPI; not shown: MYC tag and GPI anchor signal
T2 sequence: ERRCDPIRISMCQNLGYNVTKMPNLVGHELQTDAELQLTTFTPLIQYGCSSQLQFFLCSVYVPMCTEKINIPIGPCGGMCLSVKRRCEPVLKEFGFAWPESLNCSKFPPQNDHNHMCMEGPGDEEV

T3: FZD5 cysteine-rich domain (CRD), MYC-tagged and GPI-anchored on CHO cells (human, UniProt Q13467 29-156, GPI anchor)
T3 construct: also called FZD5 CRD; CHO-myc-FZDGPI; not shown: MYC tag and GPI anchor signal
T3 sequence: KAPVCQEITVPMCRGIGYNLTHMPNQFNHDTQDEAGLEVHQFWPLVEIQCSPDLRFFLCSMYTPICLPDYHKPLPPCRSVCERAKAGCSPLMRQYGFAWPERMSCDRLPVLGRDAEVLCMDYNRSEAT

T4: FZD6 cysteine-rich domain (CRD), MYC-tagged and GPI-anchored on CHO cells (human, UniProt O60353 20-146, GPI anchor)
T4 construct: also called FZD6 CRD; CHO-myc-FZDGPI; not shown: MYC tag and GPI anchor signal
T4 sequence: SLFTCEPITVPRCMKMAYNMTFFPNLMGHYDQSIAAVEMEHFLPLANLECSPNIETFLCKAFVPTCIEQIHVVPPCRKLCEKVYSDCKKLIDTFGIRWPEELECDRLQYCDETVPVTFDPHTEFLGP

T5: FZD8 cysteine-rich domain (CRD), MYC-tagged and GPI-anchored on CHO cells (human, UniProt Q498S8 31-155 (rat entry), GPI anchor)
T5 construct: also called FZD8 CRD; CHO-myc-FZDGPI; not shown: MYC tag and GPI anchor signal
T5 sequence: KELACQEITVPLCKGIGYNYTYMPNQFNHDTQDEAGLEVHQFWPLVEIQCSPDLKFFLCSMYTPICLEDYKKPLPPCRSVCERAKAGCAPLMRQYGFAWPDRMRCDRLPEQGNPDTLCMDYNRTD

T6: FZD9 cysteine-rich domain (CRD), MYC-tagged and GPI-anchored on CHO cells (human, UniProt O00144 35-161, GPI anchor)
T6 construct: also called FZD9 CRD; CHO-myc-FZDGPI; not shown: MYC tag and GPI anchor signal
T6 sequence: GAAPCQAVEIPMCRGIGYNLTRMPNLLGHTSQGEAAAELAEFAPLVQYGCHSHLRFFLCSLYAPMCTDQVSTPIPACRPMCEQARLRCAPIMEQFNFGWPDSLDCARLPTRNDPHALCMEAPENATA

T7: FZD10 cysteine-rich domain (CRD), MYC-tagged and GPI-anchored on CHO cells (human, UniProt Q9ULW2 30-156, GPI anchor)
T7 construct: also called FZD10 CRD; CHO-myc-FZDGPI; not shown: MYC tag and GPI anchor signal
T7 sequence: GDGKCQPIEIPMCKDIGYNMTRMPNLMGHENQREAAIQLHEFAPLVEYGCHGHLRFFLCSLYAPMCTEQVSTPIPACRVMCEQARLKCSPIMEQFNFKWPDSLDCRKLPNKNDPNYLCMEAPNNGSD

B1: Fab-2920 (Fab, V domains shown)
VH: EVQLVESGGGLVQPGGSLRLSCAASGFNISYYYIHWVRQAPGKGLEWVASIYPSSGSTSYADSVKGRFTISADTSKNTAYLQMNSLRAEDTAVYYCARGGMDYWGQGTLVTVSS
VL: DIQMTQSPSSLSASVGDRVTITCRASQSVSSAVAWYQQKPGKAPKLLIYSASSLYSGVPSRFSGSRSGTDFTLTISSLQPEDFATYYCQQWFAGALITFGQGTKVEIK
notes: Fab
B2: Fab-2924 (Fab, V domains shown)
VH: B1 VH with Y32S, P53S, S54Y, S55Y, G56S, G100A, M101L
VL: DIQMTQSPSSLSASVGDRVTITCRASQSVSSAVAWYQQKPGKAPKLLIYSASSLYSGVPSRFSGSRSGTDFTLTISSLQPEDFATYYCQQWYSGHSLITFGQGTKVEIK
notes: Fab; also called Fv-2924
B3: Fab-2926 (Fab, V domains shown)
VH: B1 VH with S30Y, Y31S, Y32S, I34M, G56S, M101L
VL: B2 VL with S93H, H95G, I98F
notes: Fab; also called Fv-2926
B4: Fab-2936 (Fab, V domains shown)
VH: B1 VH with I34M, P53S, G99A, G100A
VL: B1 VL with F92Y, G94A, A95S
notes: Fab; also called Fv-2936
B5: Fab-2922 (Fab, V domains shown)
VH: EVQLVESGGGLVQPGGSLRLSCAASGFNIYSSYMHWVRQAPGKGLEWVASISPYSGYTSYADSVKGRFTISADTSKNTAYLQMNSLRAEDTAVYYCARTVRGSKKPYFSGWAMDYWGQGTLVTVSS
VL: B2 VL with W91S, Y92F, S93V, G94Y, H95P, S96Y
notes: Fab; also called Fv-2922

Numbering of substitutions follows the chain as printed.

The first assay deals with T8, FZD1 cysteine-rich domain (CRD), MYC-tagged and GPI-anchored on CHO cells (human). The assay can be described thus: flow cytometry, CHO-CRD cells. (Flow cytometry measures light scatter and fluorescence of single cells or particles in a stream.)
Description: (§1) Binding was measured via flow cytometry analysis of CHO cells overexpressing CRD of FZD1, FZD2, FZD3, FZD4, FZD5, FZD6, FZD7, FZD8, FZD9 or FZD10. Median fluorescence values are shown.
B1 yielded a median fluorescence of 5.73.

In the case of B2, the median fluorescence was determined as 6.26.

For the molecule B3, the median fluorescence came to 7.17.

B4: the median fluorescence is 3.05.

On to B5, for which the median fluorescence was found to be 4.83.

The target in a further assay is T9, FZD2 cysteine-rich domain (CRD), MYC-tagged and GPI-anchored on CHO cells (human, UniProt Q14332 35-161). The assay can be described thus: flow cytometry, CHO-CRD cells.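 Further: flow cytometry of Fab binding to CHO cells overexpressing a Frizzled CRD, with binding defined as median fluorescence over twice that of CHO cells lacking any Frizzled CRD.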
Description: as §1
Molecule B1 registered a median fluorescence of 4.57.

Molecule B2 registered a median fluorescence of 6.73.

Take B3: the median fluorescence was determined as 6.21.

B4 returned a median fluorescence of 3.52.

With B5, the median fluorescence was determined as 4.78.

The next assay deals with T1, FZD3 cysteine-rich domain (CRD), …. The assay can be described thus: flow cytometry, CHO-CRD cells.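 Further: flow cytometry of Fab binding to CHO cells overexpressing a Frizzled CRD, with binding defined as median fluorescence over twice that of CHO cells lacking any Frizzled CRD.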
Description: as §1
For the molecule B1, the median fluorescence came out at 3.75.

For B2, the median fluorescence turned out to be 4.7.

B3 displayed a median fluorescence of 4.61.

B4 showed a median fluorescence of 3.

B5 returned a median fluorescence of 4.1.

A further assay addresses T2, FZD4 cysteine-rich domain (CRD), …. The assay can be described thus: flow cytometry, CHO-CRD cells.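 Further: flow cytometry of Fab binding to CHO cells overexpressing a Frizzled CRD, with binding defined as median fluorescence over twice that of CHO cells lacking any Frizzled CRD.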
Description: as §1
Turning to B1, the median fluorescence amounted to 4.22.

Turning to B2, the median fluorescence was determined as 6.38.

As to B3, the median fluorescence was 6.73.

B4 returned a median fluorescence of 3.65.

The target in another assay is T3, FZD5 cysteine-rich domain (CRD), …. The assay can be described thus: flow cytometry, CHO-CRD cells.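 Further: flow cytometry of Fab binding to CHO cells overexpressing a Frizzled CRD, with binding defined as median fluorescence over twice that of CHO cells lacking any Frizzled CRD.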
Description: as §1
With B1, the median fluorescence stood at 28.6.

For the molecule B2, the median fluorescence amounted to 39.2.

For the molecule B3, the median fluorescence amounted to 34.6.

For the molecule B4, the median fluorescence worked out at 23.5.

As for B5, the median fluorescence was 56.2.

The target of a further assay is T4, FZD6 cysteine-rich domain (CRD), …. The assay can be described thus: flow cytometry, CHO-CRD cells.
Description: as §1
For B1, the median fluorescence amounted to 3.02.

B2 came in with a median fluorescence of 4.49.

B3 came in with a median fluorescence of 3.05.

Turning to B4, the median fluorescence came out at 2.57.

B5 yielded a median fluorescence of 3.68.

In the next assay the target is T10, FZD7 cysteine-rich domain (CRD), MYC-tagged and GPI-anchored on CHO cells (human, UniProt O75084 45-169). The assay can be described thus: flow cytometry, CHO-CRD cells.
Description: as §1
Regarding B1, the median fluorescence is 4.91.

For the molecule B2, the median fluorescence was 6.49.

Take B3: the median fluorescence came out at 2.71.

For the molecule B4, the median fluorescence turned out to be 2.55.

In turn, B5 registered a median fluorescence of 2.62.

Another assay addresses T5, FZD8 cysteine-rich domain (CRD), …. The assay can be described thus: flow cytometry, CHO-CRD cells.
Description: as §1
On to B1, for which the median fluorescence was 7.5.

With B2, the median fluorescence worked out at 12.1.

Molecule B3 returned a median fluorescence of 12.9.

In the case of B4, the median fluorescence was determined as 7.04.

Turning to B5, the median fluorescence came to 9.14.

The target in the next assay is T6, FZD9 cysteine-rich domain (CRD), …. The assay can be described thus: flow cytometry, CHO-CRD cells.
Description: as §1
B1 came in with a median fluorescence of 2.89.

Turning to B2, the median fluorescence worked out at 4.49.

As to B3, the median fluorescence amounted to 3.65.

Molecule B4 yielded a median fluorescence of 2.74.

As to B5, the median fluorescence worked out at 2.89.

For another assay, the target named is T7, FZD10 cysteine-rich domain (CRD), …. The assay can be described thus: flow cytometry, CHO-CRD cells.
Description: as §1
As to B1, the median fluorescence came to 2.94.

In the case of B2, the median fluorescence is 4.78.

B3: the median fluorescence came to 2.92.

On to B4, for which the median fluorescence came to 2.5.

Regarding B5, the median fluorescence came to 2.74.

Another assay has as its target T8, FZD1 cysteine-rich domain (CRD), …. The assay can be described thus: immunofluorescence, CHO-CRD cells.
With B1, the binding result is “no binding”.

As for B2, the binding result is given as “no binding”.

As for B3, the binding result is listed as “no binding”.

For the molecule B4, the binding result was “no binding”.

B5: the binding result is “no binding”.

The next assay addresses T9, FZD2 cysteine-rich domain (CRD), …. The assay can be described thus: immunofluorescence, CHO-CRD cells.
Take B1: the binding result is recorded as “no binding”.

Turning to B2, the binding result is recorded as “no binding”.

Consider B3, for which the binding result is “no binding”.

For the molecule B4, the binding result is listed as “no binding”.

For the molecule B5, the binding result is listed as “no binding”.

The target in another assay is T1, FZD3 cysteine-rich domain (CRD), …. The assay can be described thus: immunofluorescence, CHO-CRD cells.
B1: the binding result is on record as “no binding”.

B2: the binding result was “no binding”.

Consider B3, for which the binding result is on record as “no binding”.

As for B4, the binding result is on record as “no binding”.

B5: the binding result was “no binding”.

A further assay deals with T2, FZD4 cysteine-rich domain (CRD), …. The assay can be described thus: immunofluorescence, CHO-CRD cells.
B1: the binding result is recorded as “no binding”.

Turning to B2, the binding result is “no binding”.

Regarding B3, the binding result is on record as “no binding”.

Take B4: the binding result was “no binding”.

Another assay addresses T4, FZD6 cysteine-rich domain (CRD), …. The assay can be described thus: immunofluorescence, CHO-CRD cells.
Take B1: the binding result was “no binding”.

For the molecule B2, the binding result is recorded as “no binding”.

As to B3, the binding result is on record as “no binding”.

Consider B4, for which the binding result is “no binding”.

Consider B5, for which the binding result is “no binding”.

The target in another assay is T10, FZD7 cysteine-rich domain (CRD), …. The assay can be described thus: immunofluorescence, CHO-CRD cells.
As for B1, the binding result is recorded as “no binding”.

Take B2: the binding result is reported as “no binding”.

Consider B3, for which the binding result is “no binding”.

In the case of B4, the binding result is reported as “no binding”.

For B5, the binding result is reported as “no binding”.

For a further assay, the target named is T6, FZD9 cysteine-rich domain (CRD), …. The assay can be described thus: immunofluorescence, CHO-CRD cells.
For the molecule B1, the binding result is given as “no binding”.

In the case of B2, the binding result is “no binding”.

In the case of B3, the binding result is “no binding”.

Turning to B4, the binding result is “no binding”.

B5: the binding result is “no binding”.

Another assay addresses T7, FZD10 cysteine-rich domain (CRD), …. The assay can be described thus: immunofluorescence, CHO-CRD cells.
With B1, the binding result is “no binding”.

As to B2, the binding result was “no binding”.

Regarding B3, the binding result is recorded as “no binding”.

With B4, the binding result was “no binding”.

Take B5: the binding result is listed as “no binding”.

These data come from patent publication US20210253718A1 (MODMAB THERAPEUTICS, published 2021).
